Experiments:
[1] = system: CD95-mediated Ca^2+ response; assay: Calcium response to cl-CD95L in Jurkat cells (Fura2/FuraPE3 video imaging); format: cell-based; conditions: 100 ng/ml cl-CD95L
Protocol: (§1) Cells were loaded with Fura2-AM (1 μM) at resting temperature for 30 min in Hank's Balanced Salt Solution (HBSS). After washing with HBSS, the cells were incubated for 15 min in the absence of Fura2-AM to complete de-esterification of the dye. Cells were placed in a thermostated chamber (37° C.) of an inverted epifluorescence microscope (Olympus IX70) equipped with a ×40, UApo/340-1.15 W water-immersion objective (Olympus), and fluorescence micrograph images were captured at 510 nm and at 12-bit resolution by a fast-scan camera (CoolSNAP fx Monochrome, Photometrics). To minimize UV light exposure, 4×4 binning function was used. Fura2-AM was alternately excited at 340 and 380 nm, and ratios of the resulting images (excitations at 340 and 380 nm and emission filter at 520 nm) were produced at constant intervals (5 s or 10 s according to the stimulus). […] Fluorescent images were pseudocolored using the IMD display mode in MetaFluor and assembled without further manipulation in Photoshop (Adobe). Raw data were acquired with MetaFluor and graphed in Origin (OriginLab). [Ca^2+]i was calculated using the following equation: [Ca^2+]i=Kd(R−Rmin)/(R−Rmax)×Sf2/Sf1, where Kd is the Fura2-AM dissociation constant at the two excitation wavelengths (F340/F380); Rmin is the fluorescence ratio in the presence of minimal calcium, obtained by chelating Ca^2+ with 10 mM EGTA; Rmax is the fluorescence ratio in the presence of excess calcium, obtained by treating cells with 1 μM ionomycin; Sf2 is the fluorescence of the Ca^2+-free form; and Sf1 is the fluorescence of the Ca^2+-bound form of Fura2-AM at excitation wavelengths of 380 and 340 nm, respectively. In some experiments cells were placed in a Ca^2+-free medium consisting of the HBSS described above in which CaCl2 was omitted and 100 μM EGTA was added in order to chelate residual Ca^2+ ions. This medium was added to the cells just before recording to avoid leak of the intracellular calcium stores.
T cells were loaded with Fura-PE3-AM (1 μM) at room temperature for 30 min in Hank's Balanced Salt Solution (HBSS). After washing, the cells were incubated for 15 min in the absence of Fura-PE3-AM to complete de-esterification of the dye. Cells were placed in the temperature controlled chamber (37° C.) of an inverted epifluorescence microscope (Olympus IX70) equipped with an ×40 UApo/340-1.15 W water-immersion objective (Olympus), and fluorescence micrograph images were captured at 510 nm and 12-bit resolution by a fast-scan camera (CoolSNAP fx Monochrome, Photometrics). To minimize UV light exposure, a 4×4 binning function was used. Fura-PE3 was alternately excited at 340 and 380 nm, and the ratios of the resulting images (emission filter at 520 nm) were produced at constant intervals (10 seconds). The Fura-PE3 ratio (Fratio 340/380) images were analyzed offline with Universal Imaging software, including Metafluor and Metamorph. Fratio reflects the intracellular Ca^2+ concentration changes. Each experiment was repeated 3 times, and the average of more than 20 single-cell traces was analyzed.

[2] = system: CD95-mediated Ca^2+ response; assay: Calcium response to cl-CD95L in activated PBL; format: cell-based, human; conditions: human PBLs pretreated 1 μM, 1 h (positive control); 100 ng/ml cl-CD95L
Protocol: as §1
All cells were purchased from ATCC (Molsheim Cedex, France). T leukemic cell lines CEM, H9 and Jurkat were cultured in RPMI supplemented with 8% heat-inactivated FCS (v/v) and 2 mM L-glutamine at 37° C. in a 5% CO2 incubator. CEM-IRC cell expressing a low amount of plasma membrane CD95 was described in (Beneteau et al., 2007; Beneteau et al., 2008). […]
T cells were loaded with Fura-PE3-AM (1 μM) at room temperature for 30 min in Hank's Balanced Salt Solution (HBSS). […] Cells were placed in the temperature controlled chamber (37° C.) of an inverted epifluorescence microscope (Olympus IX70) equipped with an ×40 UApo/340-1.15 W water-immersion objective (Olympus), and fluorescence micrograph images were captured at 510 nm and 12-bit resolution by a fast-scan camera (CoolSNAP fx Monochrome, Photometrics). […]

Th17 cells = assay: Endothelial transmigration of CD4 T-cell subsets (Th17, Th1, Treg), Boyden chamber; format: cell-based, human
Protocol: Animal experiments were subject to ethical review by the University of Nottingham were appropriate and conducted using PPL 40/3412 in accordance with the UK Home Office guidance and under ASPA (1986). For the generation of murine T-cell subsets, spleens were removed from C57Bl/6 mice and single cell suspensions prepared. CD4^+CD62L^+ naïve cells were isolated using Miltenyi Biotec microbeads. Naïve human CD4^+ T-cells were prepared using the Miltenyi Biotec naïve CD4^+ T-cell isolation kit II, which are sorted produced a 99% pure population of CD4^+CD45RA^+ cells. Purified cells were cultured in complete IMDM media all with α-CD3 (1 μg/ml), α-CD28 (2 μg/ml), and as follows; Th1 cells IL-12 (10 ng/ml) with α-IL-4 (10 μg/ml), Th2 cells IL-4 (10 ng/ml) and α-IFN-γ (10 μg/ml), Th17 cells Il-6 (10 ng/ml), TGF-β1 (2 ng/ml), α-IFN-γ (10 μg/ml) with α-IL-4 (10 μg/ml), and Tregs IL-2 (10 ng/ml) TGF-β1 (5 ng/ml), α-IFN-γ (10 μg/ml) and α-IL-4 (10 μg/ml). Cells were converted to T-cell subsets over five days as outlined above. All cytokines were supplied by PeproTech (London, UK). Mouse CD3 (clone 2C11); human CD3 (UCHT1); mouse CD28 (37.51); human CD28 (CD28.2); mouse IL-4 (11B11); human IL-4 (MP4-25D2); mouse IFN-γ (XMG1.2); human IFN-γ B27 came from BD Pharmigen.
After hydration of the Boyden chamber membranes containing 3 μm pore size membranes (Millipore, Molsheim, France), activated T-lymphocytes (10^6) were added to the top chamber on a confluent monolayer of HUVEC in a low serum (1%)-containing medium. […] In experiments using human sera, 500 μl of serum from either healthy donors or SLE patients was added in the lower reservoir. Cells were cultured for 24 h at 37° C. in a 5% CO2 humidified incubator. Transmigrated cells were counted in the lower reservoir by flow cytometry using a standard of 2.5×10^4 fluorescent beads (Flow-count, Beckman Coulter).
Blocking antibodies were used against E-selectin and ICAM-1 in the CHEMICON® endothelial cell adhesion assay (Millipore). Briefly, after activation of the endothelial cell layer with TNF-α, anti-mouse Ig controls, anti-E-selectin or anti-ICAM-1 were added at final concentrations of 10 μg/ml. Thereafter calcein-AM-stained T-cell subsets were incubated for 24 hours and unbound cells are washed. Cells attached to the endothelium were assessed using fluorescence plate reader.

Th17 cell accumulation = assay: In vivo administration of cl-CD95L: cell accumulation in peritoneal cavity and spleen; set-up: species or system C57BL/6 mice; conditions: 24 hours
Protocol: Female C57BL/6 mice (Harlan UK) aged between 8-10 weeks were placed in groups of 6 and administered IP. Twenty-four hours following injection, mice were sacrificed and periteonial cavities were washed with 5 ml of PBS/2% FCS, blood smears were prepared, and spleens were collected. Blood smears and cytospins of periteonal cells (PECs) were stained with Giemsa and differential counts performed. Single cell suspensions of spleens and PECs were prepared, cell counts performed, CD4+CD62− T-cells were isolated with Miltenyi microbeads and number of cells determined by trypan blue exclusion. For experiments where animals received TAT-mCID or control peptides, 800 μg (40 mg/kg) was injected IP 2 hrs prior to administration of cl-CD95L. All mouse experiments were performed under ethical approval from the University of Nottingham local animal ethics committee and adhering to UK Home Office guidelines under the Project License 40/3412.
Single cell suspensions of spleens and PECs were prepared as described above. RNA was extracted from CD4 T-cells using phenol/chloroform. cDNA was prepared using the Promega GO-Script Reverse Transcription Kit and used in Real-Time PCR. Briefly, cDNA samples were subject to Taqman assay performed on a Roche Lightcycler. Results are reported as expression levels were calculated using the Δct method relative to HPRT.

Ryanodine was tested, and the “calcium response to cl-CD95L” value ([1]; Jurkat cells pretreated 20 minutes with 10 μM Ryanodine, alone or with Xestospongin C) was “did not reduce the initial peak but blocked the plateau phase”.

`C1CCC[C@H]2CCCN3CC[C@@H](CCCCCC[C@@H]4CCCN5CC[C@@H](CC1)O[C@@H]45)O[C@@H]23` [Xestospongin C, reference compound] was tested, and the “CD95-mediated Ca^2+ response” value [2] was “abrogated the CD95-mediated Ca^2+ response” and the “calcium response to cl-CD95L” value ([1]; Jurkat cells pretreated 2 μM, 20 minutes) was “completely blocked the initial component of the calcium response”.

B1: CD95-Fc: decoy receptor for CD95L (protein)
chain: QVTDINSKGLELRKTVTTVETQNLEGLHHDGQFCHKPCPPGERKARDCTVNGDEPDCVPCQEGKEYTDKAHFSSKCRRCRLCDEGHGLEVEINCTRTQNTKCRCKPNFFCNSTVCEHCDPCTKCEHGIIKECTLTSNTKCKEEGSRSN
modifications: left off: a dimerising Fc or GST
notes: decoy receptor for CD95L
For B1, the “Th17 cell migration induced by SLE sera” value (Th17 cells; pre-incubation of SLE sera with decoy receptor, increasing concentrations) was “prevented Th17 cell migration in a dose-dependent manner”.

B2: cl-CD95L: recombinant homotrimeric metalloprotease-cleaved CD95L from supernatant of transfected HEK 293 cells (protein)
chain: QIGHPSPPPEKKELRKVAHLTGKSNSRSMPLEWEDTYGIVLLSGVKYKKGGLVINETGLYFVYSKVYFRGQSCNNLPLSHKVYMRNSKYPQDLVMMEGKMMSYCTTGQMWARSSYLGAVFNLTSADHLYVNVSELSLVNFEESQTFFGLYKL
In the case of B2, the “transmigration of CD4 T-cell subsets” value (Th17 cells; Th1 and Th17 versus Th0 and Th2, cl-CD95L 200 ng/ml) is reported as “more efficient to promote the transmigration of Th1 and Th17 lymphocytes”, the “endothelial transmigration of Th17 T cells” value (Th17 cells; human Th17 cells, presence or absence of cl-CD95L) is reported as “enhanced endothelial transmigration of Th17 T cells” and the “endothelial transmigration of Treg cells” value (Th17 cells; human regulatory T-cells, presence or absence of cl-CD95L) is reported as “failed to induce significant Treg transmigration”. For the same molecule, the “total cell counts from the PEC and spleen” value (Th17 cell accumulation; single IP dose cl-CD95L (200 ng) versus vehicle) was “significant increase in the number of lymphocytes” and the “Th17 lineage markers (IL-17, IL-23R, CCR6) in recruited activated CD4+ T cells, Q-PCR” value (Th17 cell accumulation; single IP dose cl-CD95L (200 ng)) was “induced the recruitment of Th17 cells”.

Reference: patent US10189887B2, “Polypeptides and uses thereof for reducing CD95-mediated cell motility” (INSERM (INSTITUT NATIONAL DE LA SANTÉ ET DE LA RECHERCHE …, priority 2014, dated 2019)
